# The nanobody polyreactivity screen of Harvey et al. (2022)
# Assay: yeast display, Sf9 membrane polyspecificity reagent, FACS + sequencing; frameworks hold sequencing errors
# In short: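 Nanobodies from a synthetic yeast display library (Saccharomyces cerevisiae BJ5465), induced 36–48 hours with galactose, were stained 1 hour at 4 °C with 10% biotinylated, detergent-solubilized Sf9 membrane reagent, enriched on streptavidin microbeads, then FACS-sorted. Anti-HA (expression) and streptavidin (reagent binding) fluorescence set low and high (top ~1%) gates. Polyreactivity labels come from the gate of origin. Genes were colony-PCR amplified, MiSeq 2 × 250 sequenced and filtered by CDR length.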
row,Sequence,polyreactivity (PSR sort gate)
1,QVQLVESGGGLVQAGGSLRLSCAASGLIFSSYPKGWYRQAPGKEWVLVAAITRTGGDTYYADSVKGRFTISRDNAQNSFYLQMNSLKPEDTAVYYCSSSGPQYYSRNFDYWGQGTQVTVSS,low polyreactivity
2,QVQLVESGGGLVQAGGRLRLSGAASGSTFGGYAMGWYRQAPGKERELVASINYGGDTTYYADSVKGRFTISRDNAKNTVYLQMNSLKPEDTAVYYCATDGTTPTPRYAFVRFDHWGQGTQVTVSS,low polyreactivity
3,QGQLVESGGGLVQAGGSLRLSCAATGFTFRYYAMGWYRHAPGKERELVATITRGGSTNYADSVKGRFTISRDNAKNTVYLQMNSLKPEDTAVYYCATGKNYWRGYEYWGQGTQVTVSS,low polyreactivity
4,QVQLVESGGGLVQAGGSLRLSCAASGIIFADYDMGWYRQAPGKERELVAAITGSGGSTYYADSVKGRFTISRDNEKKTVYLQMNSLKPEDTAVYYCAADYAYSYGYHYGYWGQGTQVTVSS,high polyreactivity
5,QVQLVESGGGLVQAGGSLRLSCAASGSIFKVYAMGWYRQAPGKEREFVAAITSSDSNTNYADSVKGRFTISRDNAKNTVYLQMNSLKPEDTAVYYCNARIYTRRYVPHYGFNYWGQGTQVTVSS,low polyreactivity
6,QVQLVESGGGLVQAGGTLRLSCAASGSIFRGNGMGWYRQAPGKERELVAAISRSGGRTYYADSVKGRFTFSRDNAKNTVYLQMNSLKPEDTAVYYCAAVPPYNYRFRVYYWGQGSQVTVSS,high polyreactivity
7,QVQLVESGGGLDQAGGSLRLSCAASGSIFTDNAMGWYRQAPGKERELVASITIAGSTKYADSVKGRFTISRDNAKKTVYLQMNSLKPEDTAVYYCNAEASDLHDYWGQGTQVTVSS,low polyreactivity
8,QVQLVESGGGLVQAGGSLRLSCAASGIIFWRYAMGWYRQAPGKERELVASISSSGGRTYYADSVKGRFTISRDNAKNTVYLQMNSLTPEDTAVYYCAARGPYGYDLLYYWGQGTQVTVSS,high polyreactivity
9,QVQLVESGGGLVHAGGSLRLSCAASGITYSRYAMGWYRQAPGKERELVAAITWDGGRTYYADTVKGRFTISRDIAKNTVYLQMNSVKPEDTAVYYCAAGSAWWYYWGQGTQVTVSS,high polyreactivity
10,QVMLVESGGGLVQAGGSLRLSCAASGSIFKSNAMGWYRQAPGKERELVAAITRSGGSTYYADSVKGRFTISRDNAKYTVYLQMNSLKPEDTAVYYCARRPGKGNNYWGKGTQVTVSS,high polyreactivity
11,QVQLVESGGGLVQAGGSLRLSCAASGRIFKHYAMGWYRQAPGKERELVAAITNGGRTNYADSVKGRFTISRDNAKNTVYLQMNSLKPEDTAVYYCARDRKIAYLSEGFDYWGQGTQVTVSS,low polyreactivity
12,QVQLVESGGGLVQAGGSLRLSCAASGFTLYFYVMGWYRQAPGKERELVAAITSGGSTYYADSVKGRFTISRDNAKNTVYLQMNSLKPEDTAVYYCAARRSPSRRYLGNYWGQGTQVTVSS,high polyreactivity
13,QVQLEESGGGIVQAGGSLRLSCAASGSTFNYYAMGWYRQAPGKERELVAAINSNGGSTYYADSVKGRFTISRDNAKNTVYLQMNSPKPEDTAVYLCAADISPYDYDYWGQGTQVTVSS,high polyreactivity
14,QVQLVESGGGLVQAGGSLRLSCAASGRTFKLYAMGWYRQAPGKERELVAALSIRGTSTYYADSVKGRFTISRDNAKNTVYLQMNSLKPEDTAVYYCAAEDRYGYYLVRWQGYYYWGQGTQVTVSS,low polyreactivity
15,QVQLVESGGGLVQAGGSLRLSCAASGFIFNYNAMGWYRQAPGKERELVAAIRTSSGSTYYADSVKGRFTISRDNAKNTVYLQMNSLKPEDTAVYYCGKTRYSTYSPIYYYWGQGTQVTVSS,high polyreactivity
16,QVQLVESGGGLVQAGGSLRLSCAASGSIFFSNVMGWSRPAPGKERELVAAITRGGGTNYADSVKGRFTISRDNAKNTVYLQMNSLKPEDTAVYYCNRDPQKYRWIPRYDYWGQGTQVTVSS,low polyreactivity
17,QVQLVESGGGLVQAGGSLRLSCAASGFIFSHNAMGWYRQAPGKERELVAAIDYIDGSTYYADSVKGRFTISRDNAKYTVYLQMNSLIPEDTAVYDCAADGLFYWWHYGYWGQGSQVTVSS,low polyreactivity
18,QVQLVESGGGLVQAGGSLRLSCAPSGFTFLYYVMGWYRQAPGKERELVAAINAGGGSTYYAESVKGRFTLSRDNAKNSVYLQMKSLKPADTAVYYCNARVRVRLGRNWSSYYDWGQGTQVTVSS,high polyreactivity
19,QVQLVESGGCLVQAGGSLRLSCAASGLTFGSNAMGWYRQAPGKERELVAAISSTGSTYYADSVKGRFTISRDNAKNTVYLQMNSLKPEDTAVYYCAAYDYWGQGTQVTVSS,low polyreactivity
20,QVQLVESGGGLVQAGGSLRLSCAASGRIFVGYAMGLYRQAPGKEREFVATITFSGSSTYYADSVKGRFTISRDNAKNTVYIQMNSLKPEDTAVYYCAVTLEDYTYVYWGQGTQVTVSS,low polyreactivity
21,QVQLVESGGGLVQAGGSLRLSCAASGRIFNYYAMGWYRQAPGKEMELVAVITYSAGRTYYADSVKGRFTISRDNAKNTVYLQMNSLKPEDTAVYYCNADGWVSVSKHYYYWGQGTQVTVSS,low polyreactivity
22,HVQLVESGGGLVQAGGSLRVSCAASGSTFTRNAMGWYRQAPGKERELVAAITLRGGRTYYADSVKGRFTISRDNAKNTVYLQMNSLKPEDTAVYYCAAKPYTAYSYYEQRGRKYDYWGQGTQVTVSS,low polyreactivity

row,Sequence,polyreactivity (PSR sort gate)
1,QVQLVESGGGLVQAGGSLRLSCAASGSTFSNNARGWYRQAPGKERELVAAISRSGGSTYYADSVKGRFTISRDNAKNTVYLQMNSLKPEDTAVYYCAAYAPYYRTMDYWGQGTQVTVSS,high polyreactivity
2,QVQHVESGGGLVQAGGSLRLSCAASGSIFLLYAMGCYSQAPGKERELVAAISTRDGSTYYADSVKGRFTISRDNAKNTVYLQMNSLKPEDTAVYYCATLYSYNYWGQGTQVTVSS,high polyreactivity
3,QVQHVESRGGLVQAGGSLRLSCAASGRTFFNNVMGWYRQAPGKERELVAAISKSGTRTYYADSVKGRFTISRDNAKNTVYLQMNSLKPEDTAVYYCATGQYLRTSRYYYWGQGTQVTVSS,high polyreactivity
4,QVQLVESGGGLVQAGGSLRLSCAASGFIFYSNAMGWYSQAPGKVRELVAAISRGGGSTYYADSVKGRFTISRDNAKNTVYLQMNSLKPEDTAVYYCAKRRLSPQDDYWGQGTQVTLSS,high polyreactivity
5,QVQLVESGGGLVQAGGSLRLICSASGLISRINAMGWYRQAPGKERELVAAISSGGSTNYADSVKGRFTISRDNAKNTVYLQMNSLKPEDTAVYYCAAEVFRVAWYDYWGQGTQVTVSS,high polyreactivity
6,QVQLVESGGGLFQAGGSLRLSCAASGSISYYNAMGWYRQAPGKERELVATITDSGGSTYYADSVKGRFTISRDIAKNTVYLQMISLKPEDTAVYYCAVDFSEWYSIYDYWGQGTQVTVSS,low polyreactivity
7,QVQLVESGGGLVQAGGSLRLSCAASGRPFPFNAMGWSRQAPGKDRELVAAISGRGGSTYYADSVKGRFTISRDNATNTGSLQRNSQKPEDTAVDYCAARLPWSYYRTQGYNSWGQGTQGTVSS,high polyreactivity
8,QVQLVVSGGGLVQAGGSLRLSCAASGGTFQHNTMGWYRQAPGKERELVAAIRWSDGSTYYADSVKGRFTISRDNAKTTVYLQMNSLKPEDTSVYYCNRAYTASYIPRVGFWGQGTQVTVSS,high polyreactivity
9,QVQLVESGGGLVQAGGSLRLSCAASGFTFGSYAMGWYRQAPGKEREFVAAITRSGGRTYYADSVKGRFTISRDNAKNTVYLQMNSLKPEDTAVSYCNAYRSALYTPEYDYWGQGTQVNVSS,high polyreactivity
10,QVQLVESGGGLVQAGGSLRLSCAASGYPFGYYGKGWYRQAPGKERELVAAISRSGGGSTYYADSVKGRFTISRENAKYTVYLQINSLKPEDTAVYYCNVSPGVWRSIPLYYNLRYGYWGQGTQVTVSS,low polyreactivity
11,QVQLVESGGGLVQAGGSLRLSCAASGSIFVHYAMGWYRQAPGKERELVAAITSSGGRTYYADSVKGRFTISRDNAKNTVYLQMNSLKPEDTAVYYCNAAKYLYRHGFLSAGDMYYWGQGTQVTVSS,high polyreactivity
12,QVQLVESGGGLVQAGGSLRLSCAASGLILHKYAMGWYRQAPGKERELVASINSGANTNYADSVKGRFTISRDNAKNTVYLQMNSLKPEDTAVYYCNASPFTVRYYKYEYWGQGTQVTVSS,low polyreactivity
13,QVQLVESGGGLVQAGGSLRLSCAASGSIFSGYVMGWYRQAPGKERELVAAISGSGGSTYYADSVKGRFTISRDNAKNTVYLQMNSLKPEDTAVYYCNKGLSRSYWWVDYWGQGTQVTVSS,low polyreactivity
14,QVQLVESGGGLVQAGGSLRLSCAASGFTFRVYAMGWYRQAPGKERELVAAITRGGSTKYADSVKGRFTISRDNAKNTVYLQMNSLKPEDTAVYYCAARYNGKLNWGQGTQVSVSS,high polyreactivity
15,QVQLVESGGGLVQAGGSLRLSCAASGRIFKFNAMGWYRQAPGKERELVAATWSGGRTSYADSVKGRFTISRDNAKNTVYLQMNSLKPEDTAVYYCNAADWIDVQYDYWGQGNQVTVSS,low polyreactivity
16,QGQLVESGGGLVQAGASLSLTSDDYRTIVKTYAMGSYRPAPGKESEMVAAISWRGGSTYYADSVKGRITISRDNAKNTVYLQMNSMKPVDTAVYYCVAVRNFGTRTLWYRYGYWGQGSQVTVSS,high polyreactivity
17,QVQIVESGGGLVQAGGSLRLSCAASGRTLDVYAMGWDRQAPGKERELVARITSGGSTNYADSVKGRFTISRDNAKNTVYLQMNSLKPEDTAVYYCNAVVYPRPYTRPRYRYDYWGQGTQVTVSS,high polyreactivity
18,QVQLVESGGGLVHAGGSLRLSCAASGSTFSWYVMGWYRQAPGKERELVAAISYRGGRTYYADSVKGRFTISRDNAKNTVYLQMNSLKPEDTAVYYCAARGVVDAGRTNRPYDYWGQGTQVTVSS,low polyreactivity
19,QVQLVESGGGLVQAGGSLRLSCAASGFTFQYYAMGCYRPAPGKERELVATISSTDNTYYADSVKGRFTISRDNAKNTVYLQMFSLKPEDTAVYYCNAAYVYGYQARGGYWGQGTQVTVSS,high polyreactivity
20,QVQLVESGGGLVQAGGSLRLSCAASGRICGSYAMGWYRQAPGKERELVAAISWRGTSTYYADSVKGRFTISRDNAKNTVYLQMNSLKPEDTAVYYCAAAVDAFTNKQYYYWGQGTLVTVSS,low polyreactivity
21,QVQLVDSGRGLVQAGGSLRLSCASSGSTFRDYAMGWYRQAPGKETELVAVITWNGGSTYYADSVKGRFTISRDNAKNTVYLEMNSLKPEDTAVYYCGAVYPRSLSTEYYYWGQGTQVTVSS,high polyreactivity
